Where two headings read alike, the source gives them in different places.

Series [1] deals with T1, HMG20A, human, recombinant from insect cells (human, UniProt Q9NP66 1-347).
T1 sequence: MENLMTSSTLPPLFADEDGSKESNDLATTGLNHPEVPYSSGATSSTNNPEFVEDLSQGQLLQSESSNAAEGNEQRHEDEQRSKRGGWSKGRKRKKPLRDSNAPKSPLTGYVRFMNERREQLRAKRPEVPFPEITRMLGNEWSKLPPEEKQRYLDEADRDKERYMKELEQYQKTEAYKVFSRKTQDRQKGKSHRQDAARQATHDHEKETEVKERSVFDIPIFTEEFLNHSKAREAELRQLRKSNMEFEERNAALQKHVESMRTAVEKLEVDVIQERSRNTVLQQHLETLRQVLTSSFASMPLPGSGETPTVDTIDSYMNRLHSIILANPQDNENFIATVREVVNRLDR
Put plainly: native gel or EMSA.

The target in series [2] is PHF14 (PHD finger protein 14), human, recombinant from insect cells (human) (UniProt O94880). Nature of the series: native gel or EMSA.
A further series deals with PHF14;HMG20A;TCF20 (human;human;human, UniProt O94880;Q9NP66;Q9UGU0 1-948;1-347;1-1960, ||). Nature of the series: EMSA.
The target of series [3] is T2, HMG20A (human, UniProt Q9NP66 1-347). Put plainly: EMSA. On the technique in general: Mobility shift assays separate free from complexed probe on a gel.
A further series concerns the target PHF14;HMG20A (human;human, UniProt O94880;Q9NP66 1-948;1-347, |). Put plainly: EMSA.
Series [4] concerns the target T2, HMG20A. Nature of the series: EMSA. The source holds these as a separate data set.
Another series deals with T3, PHF14 (human, UniProt O94880 1-948).
T3 sequence: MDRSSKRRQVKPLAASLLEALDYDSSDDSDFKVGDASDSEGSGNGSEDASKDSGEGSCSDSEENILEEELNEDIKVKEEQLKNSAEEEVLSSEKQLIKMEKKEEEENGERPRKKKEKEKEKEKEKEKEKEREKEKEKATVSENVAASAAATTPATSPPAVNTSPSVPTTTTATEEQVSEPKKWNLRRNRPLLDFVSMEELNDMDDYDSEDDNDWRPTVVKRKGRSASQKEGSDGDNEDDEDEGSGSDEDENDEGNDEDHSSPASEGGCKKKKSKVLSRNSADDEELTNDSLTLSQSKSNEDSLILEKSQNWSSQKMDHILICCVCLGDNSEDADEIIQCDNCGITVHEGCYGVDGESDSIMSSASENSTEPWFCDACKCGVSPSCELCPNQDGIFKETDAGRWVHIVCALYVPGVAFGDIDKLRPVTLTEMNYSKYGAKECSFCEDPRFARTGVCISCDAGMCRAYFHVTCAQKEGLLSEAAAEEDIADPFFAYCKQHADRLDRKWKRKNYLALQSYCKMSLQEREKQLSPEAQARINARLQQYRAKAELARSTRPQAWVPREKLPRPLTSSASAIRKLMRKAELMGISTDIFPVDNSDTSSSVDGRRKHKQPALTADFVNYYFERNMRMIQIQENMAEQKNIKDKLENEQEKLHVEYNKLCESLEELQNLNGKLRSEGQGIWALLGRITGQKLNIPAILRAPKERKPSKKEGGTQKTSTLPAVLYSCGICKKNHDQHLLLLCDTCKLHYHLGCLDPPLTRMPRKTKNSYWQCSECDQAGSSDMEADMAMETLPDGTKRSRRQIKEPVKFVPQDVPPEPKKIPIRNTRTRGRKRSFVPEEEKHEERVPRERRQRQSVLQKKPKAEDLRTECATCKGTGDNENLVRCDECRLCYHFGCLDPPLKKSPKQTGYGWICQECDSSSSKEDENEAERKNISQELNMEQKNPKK
Nature of the series: EMSA.

B1: TCF20 (transcription factor 20), human, recombinant from insect cells (natural protein)
chain: MQSFREQSSYHGNQQSYPQEVHGSSRLEEFSPRQAQMFQNFGGTGGSSGSSGSGSGGGRRGAAAAAAAMASETSGHQGYQGFRKEAGDFYYMAGNKDPVTTGTPQPPQRRPSGPVQSYGPPQGSSFGNQYGSEGHVGQFQAQHSGLGGVSHYQQDYTGPFSPGSAQYQQQASSQQQQQQVQQLRQQLYQSHQPLPQATGQPASSSSHLQPMQRPSTLPSSAAGYQLRVGQFGQHYQSSASSSSSSSFPSPQRFSQSGQSYDGSYNVNAGSQYEGHNVGSNAQAYGTQSNYSYQPQSMKNFEQAKIPQGTQQGQQQQQPQQQQHPSQHVMQYTNAATKLPLQSQVGQYNQPEVPVRSPMQFHQNFSPISNPSPAASVVQSPSCSSTPSPLMQTGENLQCGQGSVPMGSRNRILQLMPQLSPTPSMMPSPNSHAAGFKGFGLEGVPEKRLTDPGLSSLSALSTQVANLPNTVQHMLLSDALTPQKKTSKRPSSSKKADSCTNSEGSSQPEEQLKSPMAESLDGGCSSSSEDQGERVRQLSGQSTSSDTTYKGGASEKAGSSPAQGAQNEPPRLNASPAAREEATSPGAKDMPLSSDGNPKVNEKTVGVIVSREAMTGRVEKPGGQDKGSQEDDPAATQRPPSNGGAKETSHASLPQPEPPGGGGSKGNKNGDNNSNHNGEGNGQSGHSAAGPGFTSRTEPSKSPGSLRYSYKDSFGSAVPRNVSGFPQYPTGQEKGDFTGHGERKGRNEKFPSLLQEVLQGYHHHPDRRYSRSTQEHQGMAGSLEGTTRPNVLVSQTNELASRGLLNKSIGSLLENPHWGPWERKSSSTAPEMKQINLTDYPIPRKFEIEPQSSAHEPGGSLSERRSVICDISPLRQIVRDPGAHSLGHMSADTRIGRNDRLNPTLSQSVILPGGLVSMETKLKSQSGQIKEEDFEQSKSQASFNNKKSGDHCHPPSIKHESYRGNASPGAATHDSLSDYGPQDSRPTPMRRVPGRVGGREGMRGRSPSQYHDFAEKLKMSPGRSRGPGGDPHHMNPHMTFSERANRSSLHTPFSPNSETLASAYHANTRAHAYGDPNAGLNSQLHYKRQMYQQQPEEYKDWSSGSAQGVIAAAQHRQEGPRKSPRQQQFLDRVRSPLKNDKDGMMYGPPVGTYHDPSAQEAGRCLMSSDGLPNKGMELKHGSQKLQESCWDLSRQTSPAKSSGPPGMSSQKRYGPPHETDGHGLAEATQSSKPGSVMLRLPGQEDHSSQNPLIMRRRVRSFISPIPSKRQSQDVKNSSTEDKGRLLHSSKEGADKAFNSYAHLSHSQDIKSIPKRDSSKDLPSPDSRNCPAVTLTSPAKTKILPPRKGRGLKLEAIVQKITSPNIRRSASSNSAEAGGDTVTLDDILSLKSGPPEGGSVAVQDADIEKRKGEVASDLVSPANQELHVEKPLPRSSEEWRGSVDDKVKTETHAETVTAGKEPPGAMTSTTSQKPGSNQGRPDGSLGGTAPLIFPDSKNVPPVGILAPEANPKAEEKENDTVTISPKQEGFPPKGYFPSGKKKGRPIGSVNKQKKQQQPPPPPPQPPQIPEGSADGEPKPKKQRQRRERRKPGAQPRKRKTKQAVPIVEPQEPEIKLKYATQPLDKTDAKNKSFYPYIHVVNKCELGAVCTIINAEEEEQTKLVRGRKGQRSLTPPPSSTESKALPASSFMLQGPVVTESSVMGHLVCCLCGKWASYRNMGDLFGPFYPQDYAATLPKNPPPKRATEMQSKVKVRHKSASNGSKTDTEEEEEQQQQQKEQRSLAAHPRFKRRHRSEDCGGGPRSLSRGLPCKKAATEGSSEKTVLDSKPSVPTTSEGGPELELQIPELPLDSNEFWVHEGCILWANGIYLVCGRLYGLQEALEIAREMKCSHCQEAGATLGCYNKGCSFRYHYPCAIDADCLLHEENFSVRCPKHKPPLPCPLPPLQNKTAKGSLSTEQSERG
On to B1, for which the “stoichiometry N” value in series [1] and in series [2] was 0.5 throughout.

B2: dsDNA (dsDNA)
DNA 1: CCCTATAACCCCTGCATTGAATTCCAGTCTGATAA
DNA 2: TTTATCAGACTGGAATTCAATGCAGGGGTTATAGGG
Regarding B2, the binding result with PHF14;HMG20A;TCF20, with HMG20A [3] and with PHF14;HMG20A was “binds” each time.

B3: 4WJ (four-way junction, Holliday junction) (structured_DNA)
DNA 1: CCCTATAACCCCTGCATTGAATTCCAGTCTGATAA
DNA 2: GTAGTCGTGATAGGTGCAGGGGTTATAGGG
DNA 3: AACAGTAGCTCTTATTCGAGCTCGCGCCCTATCACGACTA
DNA 4: TTTATCAGACTGGAATTCAAGCGCGAGCTCGAATAAGAGCTACTGT
With B3, the binding result is “binds” with PHF14;HMG20A;TCF20, “binds” in the series with HMG20A [4], “no binding” with PHF14 and “binds” with PHF14;HMG20A.

For the origin of these results see article doi:10.1101/2021.10.12.462922 (bioRxiv, 2021).
